Data taken from patent publication US7642046B2, “Method for monitoring recruitment of proteins to the intracellular domain of a receptor in intact cells” (priority 2001, dated 2010).
Blank lines part the entries; values can stand above or below the molecule they belong to.

How the values were obtained:
CD40 mutants [1] = target: T1, CD40 mutants (Homo sapiens, UniProt P25942); assay: Recruitment assay in intact cells with CD40 mutants (deletions or point mutations in TRAF binding sites); format: cell-based; settings: CD40-222 (CD40 1-222) control, 293T cells
T1 construct: expressed in transfected cells; host or cells: 293T
T1 sequence (P25942 21-222, stated change not applied): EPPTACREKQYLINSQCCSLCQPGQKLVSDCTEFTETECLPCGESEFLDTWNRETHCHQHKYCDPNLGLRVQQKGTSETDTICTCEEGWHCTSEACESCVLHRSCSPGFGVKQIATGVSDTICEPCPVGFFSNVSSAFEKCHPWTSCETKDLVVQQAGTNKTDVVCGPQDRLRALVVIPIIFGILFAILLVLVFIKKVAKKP
Description: (§1) The lysates were cleared by centrifugation at 15000 G at 4° C. in a micro-centrifuge, 3 fold serially diluted (with lysis buffer containing 1% bovine serum albumin) and then every diluted sample incubated for 2 hours at room temperature (or overnight) in wells of ELISA microtiter plates coated with a mAb (Ro1) specific to the CD40 extra-cellular domain (Schwabe et al. 1997). For control purposes, instead of the wild type CD40 plasmid, a plasmid encoding a CD40 mutant lacking the entire signaling domain was used for transfection and transient expression (CD401-222, FIG. 1B). Following incubation exhaustive washes were carried out on the microtiter plates to remove any unbound protein [about 10 washing steps with PBS containing 0.05% Tween 20) PBS/Tween)]. To detect bound TRAF1, anti TRAF1 specific antibodies were loaded into the plates, incubated for about 3 hours at room temperature, […] by extensive washes to remove unbound antibody and detecting the bound antibody with an HRP conjugated secondary antibody. All antibodies (except when used as solid phase antibody) were diluted in PBS/Tween containing 1% BSA.
(§2) The recruitment of TRAF to CD40 can be quantitatively measured using the assay described in example 1. For that purpose, the assay conditions were adjusted in such a way that TRAF expression was in significant excess over the expression of CD40. This was the case when the TRAF expression plasmid was used at a two to three fold excess over the CD40 expression plasmid. The CD40 bound TRAF concentration was measured as described in example 1. A reference extract containing CD40/TRAF complexes served as a standard in each assay. This standard extract consisted of a large pool extract from cells that had been co-transfected with the plasmids encoding CD40/TRAF1, CD40/TRAF2, CD40/TRAF3, CD40/TRAF5 and CD40/TRAF6. The extracts were tested for the presence of CD40/TRAF complexes and the complex concentrations in each extract were arbitrarily defined as 1000 U/ml. The extracts were frozen in small aliquots and kept at −80° C. until further use. By comparing unknown samples to these extracts, it was possible to determine the relative CD40-TRAF complex concentrations in arbitrary units. The necessary normalization for sample-to-sample variations in the CD40 expression was calculated with the following formula: […]
(§3) The quantitative version of the TRAF recruitment assay as described in example 3 was used to compare CD40 and various CD40 mutants with respect to their TRAF recruitment behaviour. TRAF 1, 2, 3, 5 and 6 were examined. […] Additional deletion of the TRAF1/2/3/5 binding motif PXQXT254 at amino acid position 250 to 254 reduced the binding of all 5 TRAFs test to background levels (1-254EA in FIG. 3B). […]

CD40 mutants [2] = target: T2, CD40 mutants (Homo sapiens, UniProt P25942, E235A); assay: as above; format: cell-based; settings: E235A plus deletion of PXQXT254 motif
T2 construct: expressed in transfected cells; host or cells: 293T
T2 sequence (P25942 21-245 E235A): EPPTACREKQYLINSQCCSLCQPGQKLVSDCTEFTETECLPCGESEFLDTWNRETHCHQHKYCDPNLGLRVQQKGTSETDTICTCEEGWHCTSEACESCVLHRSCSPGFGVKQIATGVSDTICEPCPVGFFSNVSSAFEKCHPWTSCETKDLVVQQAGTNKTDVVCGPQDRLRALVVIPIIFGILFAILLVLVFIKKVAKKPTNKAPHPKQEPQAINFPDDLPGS
Description: as §1, §2, §3

recruitment to signalling-domain-deficient CD40 mutant (CD40 mutants [1]): undetectable
B1: TRAF1: TNF receptor associated factor 1, adaptor protein overexpressed in 293T cells from pcDNA3 (protein, UniProt Q13077 1-416, looked up)
chain: MASSSGSSPRPAPDENEFPFGCPPTVCQDPKEPRALCCAGCLSENPRNGEDQICPKCRGEDLQSISPGSRLRTQEKAHPEVAEAGIGCPFAGVGCSFKGSPQSVQEHEVTSQTSHLNLLLGFMKQWKARLGCGLESGPMALEQNLSDLQLQAAVEVAGDLEVDCYRAPCSESQEELALQHFMKEKLLAELEGKLRVFENIVAVLNKEVEASHLALATSIHQSQLDRERILSLEQRVVELQQTLAQKDQALGKLEQSLRLMEEASFDGTFLWKITNVTRRCHESACGRTVSLFSPAFYTAKYGYKLCLRLYLNGDGTGKRTHLSLFIVIMRGEYDALLPWPFRNKVTFMLLDQNNREHAIDAFRPDLSSASFQRPQSETNVASGCPLFFPLSKLQSPKHAYVKDDTMFLKCIVETST
modifications: full-length
notes: TNF receptor associated factor 1, adaptor protein overexpressed in 293T cells from pcDNA3

binding to CD40 mutant 1-254EA (CD40 mutants [2]): did not bind
B2: TRAF2: TNF receptor associated factor 2, human adaptor protein expressed from pcDNA3 (protein, UniProt Q12933 1-501, looked up)
chain: MAAASVTPPGSLELLQPGFSKTLLGTKLEAKYLCSACRNVLRRPFQAQCGHRYCSFCLASILSSGPQNCAACVHEGIYEEGISILESSSAFPDNAARREVESLPAVCPSDGCTWKGTLKEYESCHEGRCPLMLTECPACKGLVRLGEKERHLEHECPERSLSCRHCRAPCCGADVKAHHEVCPKFPLTCDGCGKKKIPREKFQDHVKTCGKCRVPCRFHAIGCLETVEGEKQQEHEVQWLREHLAMLLSSVLEAKPLLGDQSHAGSELLQRCESLEKKTATFENIVCVLNREVERVAMTAEACSRQHRLDQDKIEALSSKVQQLERSIGLKDLAMADLEQKVLEMEASTYDGVFIWKISDFARKRQEAVAGRIPAIFSPAFYTSRYGYKMCLRIYLNGDGTGRGTHLSLFFVVMKGPNDALLRWPFNQKVTLMLLDQNNREHVIDAFRPDVTSSSFQRPVNDMNIASGCPLFCPVSKMEAKNSYVRDDAIFIKAIVDLTGL
modifications: full-length
notes: TNF receptor associated factor 2, human adaptor protein expressed from pcDNA3
